The values below come from paper PMC10783497.

Several values for one entry are separate records, joined by “and”; a condition that tells them apart may be missing. Equal entries are not always repeated.

The target of the series is streptavidin (on Sera-Mag magnetic microparticles) (UniProt P22629). Put plainly: magnetic bead pull-down, FAM fluorescence of eluted aptamer. Particulars: 1X PBS, or 2 M NaCl, or 2 M CDHP with 1X PBS; 90 min at room temperature; elution in 250 mM NaCl, 500 mM Tris-HCl pH 8.5.
Sequence of streptavidin (on Sera-Mag magnetic microparticles) (P22629 25-183): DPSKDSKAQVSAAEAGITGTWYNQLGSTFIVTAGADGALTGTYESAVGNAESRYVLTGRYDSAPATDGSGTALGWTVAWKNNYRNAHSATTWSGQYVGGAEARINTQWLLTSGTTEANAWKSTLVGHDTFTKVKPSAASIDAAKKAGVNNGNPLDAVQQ

For “ATTGACCGCTGTGTGACGCAACACTCAAT [St-21-1 aptamer]”, the Kd is 94.5 nM and 75.4 nM and 70 nM.

The Kd is the constant that tells how readily two partners part at equilibrium.
